Reference: patent US20240043504A1 (published 2024)

B1: mAb10913 (antibody, V domains shown)
VH: EVQLVESGGGLVQPGGSLRLSCAASGFTFRNYEMNWVRQAPGKGLEWVSYITSSGSTMYYADSVKGRFTISRDNAKNSLYLQMNSLRAEDTAVYYCARDGFYYYYAMDVWGQGTTVTVSS
VL: QSVLTQPPSVSAAPGQKVTISCSGSSSNIGNNYVSWYQQLPGTAPKLLIYDNNKRPSGIPDRFSGSKSGTSATLGITGLQTGDEADYYCGTWDSSLSVGRVFGTGTKVTVLG
B2: mAb10932 (antibody, V domains shown)
VH: EVQLVESGGGLVQSGGSLRLSCAASGLTVSSNYMSWVRQAPGKGLEWVSVIYSGGSTFYSDSVKGRFTISRHNSKNTLYLQMNSLRAEDTAVYYCARARGDAFDIWGQGTMVTVSS
VL: not shown
B3: mAb10934 (antibody, V domains shown)
VH: not shown
VL: DIQMTQSPSSLSASVGDRVTITCQASQDIWNYINWYQQKPGKAPKLLIYDASNLKTGVPSRFSGSGSGTDFTFTISSLQPEDIATYYCQQHDDLPPTFGQGTKVEIKR
B4: mAb10935 (antibody, V domains shown)
VH: EVQLVESGGGLVQPGGSLRLSCAASGFTVSSNYMSWVRQAPGKGLEWVSLIYSGGSTYYADSVKGRFTISRHNSKNTLYLQMNSLRSEDTAVYYCARVPLGDYYYGMDVWGQGTTVTVSS
VL: DIQMTQSPSSLSASVGDRVTITCQASQDINKYLNWYQQKPGKAPKLLIYDASNLETGVPSRFSGSGSGTDFTFTISSLQPEDIATYYCQQSDNLPLTFGGGTKVEIKR
B5: mAb10936 (antibody, V domains shown)
VH: QVQLVESGGGVVQPGRSLRLSCAASGFTFRNYGMHWVRQAPGKGLEWVSVIWYDGSNRYYADSVKGRFTISRDTSKNTLYLQMNSLRAEDTAVYYCARDPPITGTTGGDAFDIWGQGTMVTVSS
VL: not shown
B6: mAb10937 (antibody, V domains shown)
VH: QITLKESGPTLVKPTQTLTLTCTFSGFSLSTNVVGVGWIRQPPGKALEWLALIYWNDDKRYSPSLKSRLTITKDTSKNQVVLTMTNMDPVDTATYYCAHGPTGDYFDYWGQGTLVTVSS
VL: not shown
B7: mAb10920 (antibody, V domains shown)
VH: QVQLVESGGGVVQPGRSLRLSCAASGFTFSYYGMHWVRQAPGKGLEWVAVIWYDGSNKFYADSVKGRFTISRDNSKNTLYLQMNSLRAEDTAVYYCAAARPGYYYGMDVWGQGTTVTVSS
VL: DIQMTQSPSSLSASVGDRVTITCRASQGISNYLAWFQQKPGKAPNSLIYAASSLQRGVPSKFSGSGSGTDFTLTISSLQPEDFATYYCQQYNSYPRTFGQGTKVEIKR
B8: mAb10921 (antibody, V domains shown)
VH: EVQLVESGGGLVQPGGSLRLSCAASGITVSSNYMSWVRQAPGKGLEWVSVIYSGGSTFYADSVKGRFTISRHNSKNTLYLQMNSLRAEDTAVYYCARERNFDAFDIWGQGTMVTVSS
VL: DIQMTQSPSSVSASVGDRVTITCRASQGISSWLAWYQQKPGKAPKLLIYAASSLQSGVPSRFSGSGSGTDFTLTISSLQPEDFATYYCQQANSFPLFTFGPGTKVDIKR
B9: mAb10923 (antibody, V domains shown)
VH: QVQLVQSGAEVKKPGASVKVSCKASGYTFINYYIHWVRQAPGQGLEWMGWINPNSGGTNYAQKFQGRVTMTRDTSISTAYMELSRLRSDDTAVYYCAIITIFGVVTWFDPWGQGTLVTVSS
VL: not shown
B10: mAb10930 (antibody, V domains shown)
VH: EVQLVESGGGLVQPGRSLRLSCAASGFTFDDYAMYWVRQAPGKGLEWVSGISWNSGSIGYADSVKGRFTISRDNAKNSLYLQMNSLRAADTALYYCAKDKDWNSRGYYYYGMDVWGQGTTVTVSS
VL: not shown
B11: mAb10938 (antibody, V domains shown)
VH: EVQLVESGGGLVQPGGSLRLSCAVSGFTVSSNYMSWVRQAPGKGLEWVSLIYSGGSTFYADSVKGRFTISRHNSKNTLYLQMNSLRAEDTAVYYCAREGGYSYDYNYWGQGTLVTVSS
VL: DIQMTQSPSSLSASVGDRVTITCQASQDIRNYLNWYQQKPGKAPKLLIYDASNLETGVPSRFSGIGSGTDFTFTISSLQPEDIATYYCQQYDNLPITFGQGTRLEIKR
B12: mAb10939 (antibody, V domains shown)
VH: EVQLVESGGGLVQPGGSLRLSCAASGLTVSSNYMNWVRQVPGKGLEWVSVIYSGGSKFYVDSVKGRFTISRHNSKNTLYLQMNSLRPEDTAVYYCTRDAQYYGMDVWGQGTTVTVSS
VL: DIQMTQSPSSLSASVGDRVTITCRASQSISTYLHWYQQKPGEAPKLLIYAASSLQSGVPSRFSGSGSGTDFTLTISSLQPEDFATYYCQQSYSTPPEIFGQGTKLEIKR
B13: mAb10982 (antibody, V domains shown)
VH: EVQLVESGGGLVQPGGSLRLSCAASGLTVSSNYMSWVRQAPGKGLEWVSVIYSGGTTYYADSVKGRFTISRHNSKNTLSLQMNSLRAEDTAVYYCARGEGANYYGMDVWGQGTTVTVSS
VL: QSVLTQPPSVSGAPGQRVTISCTGSSSNIGTGYDVHWYQQLPGTAPKLLIYGNSNRPSGVPDRFSGSKSGTSASLAITGLQAEDEADYYCQSYDSSLSGYVVFGGGTKLTVLG
B14: mAb10984 (antibody, V domains shown)
VH: EVQLVESGGGLVQPGGSLRLSCAASGLTVNRNYMSWVRQAPGKGLEWVSLIYSGGSTYYADSVKGRFTISRDNSKNTLYLQMNSLRLEDTAVYYCARGELGIPYGMDVWGQGTTVTVSS
VL: QSVLTQPPSVSAAPGQKVTISCSGSSSNIGNNYVSWYQQLPGTAPKLLIYDNNKRPSGIPDRFSGSKSGTSATLGITGLQTGDEADYYCGTWDSSLSAGVFGGGTKLTVLG
B15: mAb10985 (antibody, V domains shown)
VH: EVQLVESGGGLVQPGRSLRLSCAASGFTFDDYAMHWVRQAPGKGLEWVSGISWNRGSIGYADSVKGRFTISRDNAKNSLYLQMSSLRAEDTALYYCAKDGERWDSVVVPSARNGMDVWGQGTTVTVSS
VL: QSVLTQPPSVSGAPGQRVTISCTGSSSNIGAGYDVHWYQQLPGTAPKLLIYGNSNRPSGVPDRFSGSKSGTSASLAITGLQAEDEADYYCQSYDSSLSGSYVFGTGTKVTVLG
B16: mAb10989 (antibody, V domains shown)
VH: QVQLVQSGAEVKKPGASVKVSCKASGYIFTGYYMHWVRQAPGQGLEWMGWINPNSGGANYAQKFQGRVTLTRDTSITTVYMELSRLRFDDTAVYYCARGSRYDWNQNNWFDPWGQGTLVTVSS
VL: QSALTQPASVSGSPGQSITISCTGTSSDVGTYNYVSWYQQHPGKAPKLMIFDVSNRPSGVSDRFSGSKSGNTASLTISGLQAEDEADYYCSSFTTSSTVVFGGGTKLTVLG
B17: mAb10998 (antibody, V domains shown)
VH: EVQLVESGGGLVHPGGSLRLSCAASGLTVSSNYMSWVRQAPGKGLEWVSVIYSGGSTYYADSVKGRFTISRHNSKNTLFLQMNSLRAEDTAVYYCARDRPITGTTLDVWGQGTTVTVSS
VL: DIQMTQSPSSLFASVGDRVTITCRASQSISSYLNWYQQKPGKAPKLLIYAASSLQSGVPSRFSGSGSGTDFTLTISSLQPEDFAFYYCQQTYSTPPITFGQGTRLEIKR
B18: mAb11002 (antibody, V domains shown)
VH: EVQLVESGGGLVQPGGSLRLSCAASGFTVSSNYMSWVRQAPGKGLEWVSVIYSGGSTFYADSVKGRFTISRHNSKNTLYLQMNSLRAEDTAVYYCAREGYGMDVWGQGTTVTVSS
VL: not shown
B19: mAb11004 (antibody, V domains shown)
VH: QVQLVESGGGVVQPGRSLRLSCVASGFTFSIYGMDWVRQAPGKGLEWVAVISYDGSNKYYADSVKGRFTISRDNSKNTLYLQMNSLRPEDTAVYYCAKDREAAADAFDIWGQGTMVTVSS
VL: DIQMTQSPSSVSASVGDRVTITCRASQGISSWLAWYQQKPGKAPKLLIYAASSLHSGVPSRFSGSGSGTDFTLTISSLQPEDFATYYCQQANSFRLTFGGGTKVEIKR
B20: mAb11006 (antibody, V domains shown)
VH: EVQLVESGGGLVQPGGSLRLSCAASGFIVSRNYMSWVRQAPGKGLEWVSVIYSGGSTFYADSVKGRFTISRHNSKNTLYLQMNSLKAEDTAVYYCARELRGYFDYWGQGTLVTVSS
VL: DIQLTQSPSFLSASVGDRVTITCWASQGISSYLAWYQQKPGKAPKLLIYAASTLQSGVPSRFSGSGSGTEFTLTISSLQPEDFATYYCQLLNSYPYTFGQGTKLEIKR
B21: mAb11008 (antibody, V domains shown)
VH: EVQLVESGGGLVQPGGSLRLSCAASGFTVSSNYMTWVRQAPGKGLEWVSVIYSGGSTFYADSVKGRFTISRHNSENTLYLQMNSLRAEDTAVYYCARDLAAAGTDYWGQGALVTVSS
VL: DIQLTQSPSFLSASVGDRVTITCWASQGISSYLAWYQQKPGKAPKLLIYAASTLQSGVPSRFSGSGSGTEFTLTISSLQPDDFATYYCQHLNSYLYTFGQGTKLEIKR
B22: mAb11010 (antibody, V domains shown)
VH: QVQLVESGGGVVQPGRSLRLSCAASGFTFSSYGMHWVRQAPGKGLEWVAVISYDGSYKYYADSVKGRFTISRDNSKNTLYLQMNSLRAEDTAVYYCAIDGGTVTTIFDYWGQGTLVTVSS
VL: not shown

Each binder was assayed against SARS-CoV-2 RBD extracellular domain expressed with a C-terminal mouse IgG2a (SARS-COV-2 RBD-mFc) (SARS-CoV-2) (assay: not given).
B1 gave a Kd of 244 pM, a koff of 0.000152 s⁻¹ and a kon of 623000 M⁻¹ s⁻¹. It also gave a t1/2 of 1.27 h.
With B2 the Kd was ≤ 41.3 pM, the koff was ≤ 1e-05 s⁻¹ and the kon was 242000 M⁻¹ s⁻¹. For the same binder, the t1/2 was ≥ 19.2 h.
In the case of B3, the Kd is reported as 83.2 pM and the t1/2 is reported as 1.64 h.
For B4, the Kd was ≤ 26.1 pM, the koff was ≤ 1e-05 s⁻¹ and the kon was 383000 M⁻¹ s⁻¹. For the same binder, the t1/2 was ≥ 19.2 h.
With B5 the Kd was ≤ 15.3 pM, the koff was ≤ 1e-05 s⁻¹ and the kon was 652000 M⁻¹ s⁻¹. For the same binder, the t1/2 was ≥ 19.2 h.
Work on B6 yielded a Kd of 114 pM, a koff of 7.28e-05 s⁻¹ and a kon of 639000 M⁻¹ s⁻¹. The t1/2 was 2.64 h.
B7 showed a Kd of 416 pM and a t1/2 of 0.658 h.
In the case of B8, the Kd is reported as ≤ 37.5 pM, the koff is reported as ≤ 1e-05 s⁻¹ and the kon is reported as 266000 M⁻¹ s⁻¹. For the same binder, the t1/2 was ≥ 19.2 h.
In the case of B9, the Kd is reported as 43.5 pM, the koff is reported as 2.83e-05 s⁻¹ and the kon is reported as 651000 M⁻¹ s⁻¹. The t1/2 was 6.79 h.
B10 was tested, and the Kd was ≤ 43.1 pM, the koff was ≤ 1e-05 s⁻¹ and the kon was 232000 M⁻¹ s⁻¹. For the same binder, the t1/2 was ≥ 19.2 h.
In the case of B11, the Kd is reported as ≤ 32.2 pM and the t1/2 is reported as ≥ 19.2 h.
B12 showed a Kd of 38.7 pM, a koff of 1.15e-05 s⁻¹ and a kon of 299000 M⁻¹ s⁻¹. For the same binder, the t1/2 was 16.7 h.
Binder B13 has a Kd of 54.4 pM, a koff of 1.69e-05 s⁻¹ and a kon of 310000 M⁻¹ s⁻¹. The t1/2 was 11.4 h.
With B14 the Kd was ≤ 24.9 pM and the t1/2 was ≥ 19.2 h.
Binder B15 has a Kd of 11.7 pM and a t1/2 of 15.2 h.

The binders below were run against SARS-COV-2 RBD extracellular domain expressed with a C-terminal mouse IgG2a (SARS-COV-2 RBD-mFc) (SARS-CoV-2) (assay: SPR, captured mAb, RBD-mFc in solution, 37 C).
B16 was tested, and the “t½” value was 0.527 h.
With B17 the Kd was 22400 pM, the koff was 0.0197 s⁻¹ and the kon was 879000 M⁻¹ s⁻¹. The “t½” value was 0.01 h.
For B18, the Kd was 32600 pM and the “t½” value was 0.0117 h.
For B19, the Kd was 117 pM, the koff was 0.000118 s⁻¹ and the kon was 1.01e+06 M⁻¹ s⁻¹. The “t½” value was 1.63 h.
In the case of B20, the Kd is reported as 197 pM and the “t½” value is reported as 2.52 h.
B21 gave a Kd of 872 pM, a koff of 0.000405 s⁻¹ and a kon of 464000 M⁻¹ s⁻¹. The “t½” value was 0.475 h.
With B22 the Kd was 50.5 pM and the “t½” value was 2.4 h.
